The results in this text go back to patent publication US20180265582A1.

In the test the target is human PD-1 (programmed cell death 1) (human) (UniProt Q15116). Description: column Affinity (nM); by the footnote of Tables 3 and 11: FACS staining of endogenous cell surface PD-1 on activated CD4 T cells [row BMS-5C4].
Sequence of UniProt Q15116 (Q15116 25-288 limits assumed): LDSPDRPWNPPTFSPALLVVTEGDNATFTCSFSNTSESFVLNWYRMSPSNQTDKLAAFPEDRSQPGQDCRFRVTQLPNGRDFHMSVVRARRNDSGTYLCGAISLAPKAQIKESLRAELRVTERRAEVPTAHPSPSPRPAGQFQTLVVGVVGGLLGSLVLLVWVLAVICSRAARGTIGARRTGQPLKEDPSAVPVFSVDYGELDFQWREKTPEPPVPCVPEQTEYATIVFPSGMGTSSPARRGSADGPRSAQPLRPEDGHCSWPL

For the substance BMS-5C4 (antibody), the Affinity came to 0.6 nM.
